# Assay results: the MegaScale stability set (Tsuboyama et al. 2023)
# B1: EEHEE_rd3_0130 (parent)
# chain: TKIIVNGKTFTAPTEEEAQKIAEKLAKKAGLTVHKKNGTFELK
# Variants of: B1
# Assay: folding stability dG (cDNA display proteolysis); higher = more stable
# Settings: PBS, room temperature
row,Variant,folding stability dG
1,TTIIVNGKTFTAPTEEEAQKIAEKLAKKAGLTVHKKNGTFELK [K2T],0.448 kcal/mol
2,TKIIVNGKTFTAPTEEEAQKIAEKLAKKAGLTVHKKNGRFELK [T39R],0.935 kcal/mol
3,TKIIVNGKTFTAPTEEEAQKIAEKLAKKAGLTVHKKNGAFELK [T39A],1.47 kcal/mol
4,TKIIVNGKTFTAPTEEEAQKIAEKLAKKAGLTVHKKNGKFELK [T39K],0.554 kcal/mol
5,TKIIVNGKTFTAPTEEEAQKIAEKLAKKAGLTVHKANGTFELK [K36A],0.698 kcal/mol
6,TKIIVNGKTFTAPTEEEAQKIAEKLAKKAGLTVHKHNGTFELK [K36H],0.939 kcal/mol
7,TKIIVNGKTFTAPTEEEAQKIAEKLAKKAGLTVHKGNGTFELK [K36G],0.596 kcal/mol
8,TKIIVNGKTFTAPTEEEAQKIAEKLAKKAGLTVHKKNKTFELK [G38K],-0.088 kcal/mol
9,TKIIVNGKTFTAPTEEEAQKIAEKLAKKAGLTVHKKNLTFELK [G38L],-0.199 kcal/mol
10,TKIIVNGKTFTAPTEEEAQKIAEKLAKKAGLTVHKKNPTFELK [G38P],0.071 kcal/mol
11,TKIIVNGKTFTAPTEEEAQKIAEKLAKKAGLTVHKKNHTFELK [G38H],-0.107 kcal/mol
12,TKIIVNGKTFTAGTEEEAQKIAEKLAKKAGLTVHKKNGTFELK [P13G],0.731 kcal/mol
13,HKIIVNGKTFTAPTEEEAQKIAEKLAKKAGLTVHKKNGTFELK [T1H],1.05 kcal/mol
14,KKIIVNGKTFTAPTEEEAQKIAEKLAKKAGLTVHKKNGTFELK [T1K],0.145 kcal/mol
15,SKIIVNGKTFTAPTEEEAQKIAEKLAKKAGLTVHKKNGTFELK [T1S],0.636 kcal/mol
16,TKIIVNGKTFTAPTEEEAQKIAEKLAKKAGLTVHKKNGTFHLK [E41H],0.56 kcal/mol
17,TKIIVNGKTFTAPTEEEAQKIAEKLAKKAGLTVHKKNGTFFLK [E41F],1.45 kcal/mol
18,TKIIVNGKTFTAPTEEEAQKIAEKLAKKAGLMVHKKNGTFELK [T32M],0.321 kcal/mol
19,TKIIVNGKTFTAPTEEEAQKIAEKLAKKAGLVVHKKNGTFELK [T32V],1.02 kcal/mol
20,TKIIVNGKTFTAPTEEEAQKIAEKLAKKAGLDVHKKNGTFELK [T32D],-0.061 kcal/mol

row,Variant,folding stability dG
1,TKIIVNGKTFTAPTEEEAQKIAEKLAKKAGLAVHKKNGTFELK [T32A],0.577 kcal/mol
2,TKIIVNGKTFTAPTEEEAQKIAEKLAKKAGLTVHKKVGTFELK [N37V],-0.477 kcal/mol
3,TKIIVNGKTFTAPTEEEAQKIAEKLAKKAGLTVHKKLGTFELK [N37L],0.216 kcal/mol
4,TKIIVNGKTFTAPTEEEAQKIAEKLAKKAGLTVHKKYGTFELK [N37Y],-0.556 kcal/mol
5,TKIIVNGKTFTAPTEEEAQKIAEKLAKKAGLTVHKKKGTFELK [N37K],0.391 kcal/mol
6,TKIIVNGKTFTAPTEEEAQKIAEKLAKKAGLTKHKKNGTFELK [V33K],-0.149 kcal/mol
7,TKIIVNGKTFTAPTEEEAQKIAEKLAKKAGLTWHKKNGTFELK [V33W],0.592 kcal/mol
8,TKIIVNGKTFTAPTEEEAQKIAEKLAKKAGLTNHKKNGTFELK [V33N],-0.582 kcal/mol
9,TKIIVNGKTFTAPTEEEAQKIAEKLAKKAGLTLHKKNGTFELK [V33L],0.891 kcal/mol
10,TKIIVNGKTFTAPTEEEAQKIAEKLAGKAGLTVHKKNGTFELK [K27G],0.228 kcal/mol
11,TKIIVNGKTFTAPTEEEAQKIAEKLAPKAGLTVHKKNGTFELK [K27P],-0.957 kcal/mol
12,TKIIVNGKTFTAPTEEEAQKIAEKLAEKAGLTVHKKNGTFELK [K27E],0.532 kcal/mol
13,TKIIVNGKTFTAPTEEEAQKIAEKLAVKAGLTVHKKNGTFELK [K27V],0.456 kcal/mol
14,TKIIVNGKTFTAPTEEEAQKIAEKLAAKAGLTVHKKNGTFELK [K27A],0.812 kcal/mol
15,TKIIVNGKTFWAPTEEEAQKIAEKLAKKAGLTVHKKNGTFELK [T11W],1.68 kcal/mol
16,TKIIVNGKTFTAPTEEEAQRIAEKLAKKAGLTVHKKNGTFELK [K20R],1.01 kcal/mol
17,TKIIVNGKTFTAPTEEEAQVIAEKLAKKAGLTVHKKNGTFELK [K20V],0.724 kcal/mol
18,TKIIVNGKTFTAPTEEEAQTIAEKLAKKAGLTVHKKNGTFELK [K20T],0.562 kcal/mol
19,TKIIVTGKTFTAPTEEEAQKIAEKLAKKAGLTVHKKNGTFELK [N6T],-0.318 kcal/mol
20,TKIIVRGKTFTAPTEEEAQKIAEKLAKKAGLTVHKKNGTFELK [N6R],0.555 kcal/mol

row,Variant,folding stability dG
1,TKIIVVGKTFTAPTEEEAQKIAEKLAKKAGLTVHKKNGTFELK [N6V],-0.097 kcal/mol
2,TKIIVAGKTFTAPTEEEAQKIAEKLAKKAGLTVHKKNGTFELK [N6A],0.745 kcal/mol
3,TKIIVNGKWFTAPTEEEAQKIAEKLAKKAGLTVHKKNGTFELK [T9W],0.968 kcal/mol
4,TKIIVNGKEFTAPTEEEAQKIAEKLAKKAGLTVHKKNGTFELK [T9E],0.17 kcal/mol
5,TKIIVNGKGFTAPTEEEAQKIAEKLAKKAGLTVHKKNGTFELK [T9G],-0.452 kcal/mol
6,TKIIVNGKTFTAPTEEEAQKIAEKLAKKANLTVHKKNGTFELK [G30N],0.349 kcal/mol
7,TKIIVNGKTFTAPTEEEAQKIAEKLAKKAMLTVHKKNGTFELK [G30M],0.018 kcal/mol
8,TKIIVNGKTFTAPTEEEAQKIAEKLAKKAHLTVHKKNGTFELK [G30H],0.531 kcal/mol
9,TKIIVNGKTFTAPTEEEAQKIAEKLAKKAQLTVHKKNGTFELK [G30Q],0.163 kcal/mol
10,TKIIVNGKTFTAPTEEEAQKIAEKLAKKAGLTVNKKNGTFELK [H34N],0.474 kcal/mol
11,TKIIVNGKTFTAPTEEEAQKIAEKLAKKAGLTVYKKNGTFELK [H34Y],1.14 kcal/mol
12,TKIIVNGKTFTAPTEEEAQKIAEKLAKKAGLTVKKKNGTFELK [H34K],0.497 kcal/mol
13,TKIIVNGKTFTAPTEEEAQKIAEKLAKKAGLTVVKKNGTFELK [H34V],1.25 kcal/mol
14,TKIIVNGKTFTAPTEEEAQKIAEKLAKKAGLTVIKKNGTFELK [H34I],1.2 kcal/mol
15,TKIIVNGKTFTAPTEEEACKIAEKLAKKAGLTVHKKNGTFELK [Q19C],1.25 kcal/mol
16,TKIIVNGKTFTAPTEEEAHKIAEKLAKKAGLTVHKKNGTFELK [Q19H],0.606 kcal/mol
17,TKIIVNGKTFTAPTEEEAKKIAEKLAKKAGLTVHKKNGTFELK [Q19K],0.789 kcal/mol
18,TKIIVNGKTFTAPTEEEANKIAEKLAKKAGLTVHKKNGTFELK [Q19N],0.383 kcal/mol
19,TKIIVNGKTFTAPTEEEAFKIAEKLAKKAGLTVHKKNGTFELK [Q19F],0.959 kcal/mol
